Amyloid nucleation score data for 54 substances are collected here from the supplement of paper PMC12042874.

The nature of the data set: amyloid nucleation score (Sup35N fusion, yeast selection) (log enrichment); library NNK3; higher = more nucleation; inactive = no reads after selection. The procedure, abridged: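 Peptides of 20 random codons fused to Sup35N were expressed in psi-negative yeast, induced 24 hours with 100 μM copper sulfate, then grown 7 days at 30°C on medium lacking adenine and uracil. Input and output plasmid inserts were Illumina-sequenced. Nucleation score is the DiMSum log enrichment of output over input reads, centred on the mode score of non-aggregating sequences, excluding sequences with under 100 input reads. Random libraries had three technical output replicates.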

± gives the uncertainty stated by the source.

For the substance WVGGPQNQRPANWTFGMWFH, the amyloid nucleation score entry is “inactive”. As for VTGLCSDTHRVSYEFRLPRK, the entry is “inactive”; as for GRRRIRNCVSRACLMYIQHV, 0.434 ± 0.23; as for HSSMIIRLWLDVVVQIRGQ, 0.575 ± 0.28. Then HGVNT, with “inactive”; and HWVWIGVCLYNDRRGTGICV, with 1.15 ± 0.16. Then NTYDAVISIACVSHQSICST, with “inactive”; and SRFYETDYSYFSIKSYDAGG, with “inactive”; and VNCTNLRKPLQLTQ, with “inactive”. With LVGLGLGFCYLIKTFVTLLV, the amyloid nucleation score result was “inactive”. Take NYMTVRNGLIISIAPRRLRD: the amyloid nucleation score came out at 1.83 ± 0.085. As for IIASDLSLSVVNVFN, the figure is 0.341 ± 0.31; as for VYRNVHMFSRWQDFNPLGAR, “inactive”.

For GRPHEPGKFIRNSSIGSGS, the amyloid nucleation score was -0.479 ± 1.1. Then SFCRRNISKVFYNFNNCATA, with “inactive”; and GKVNSWIGVRMKLLWSGRFG, with “inactive”; and LINAGTKFMQDTRSCWMHSS, with “inactive”. On to KLPMRVGLM, for which the amyloid nucleation score result is “inactive”. Then VKEMFKF, with “inactive”; and PHTWGGR, with “inactive”. Then THDSMHKCERMITPRGGCQQ, with “inactive”; and VRSVRGADELDLICHRLSRN, with “inactive”.

For the substance IQRVGTKGDVISTFCNRQQL, the amyloid nucleation score entry was “inactive”.

Take RSWQEMFCEWSSALDWDWSV: the amyloid nucleation score result is “inactive”. As for MLIRYAVLALCSCGTNFTDL, the amyloid nucleation score entry was “inactive”.

FRLKY: the amyloid nucleation score is 0.12 ± 0.68. As for YDSLFCLSSHLGWCNRALPE, the figure is 0.977 ± 0.13. As for HKTLFIFS, the entry is “inactive”; as for VTHGSVCFTTIYRTIWRFNR, “inactive”.

Substance FFVSDKLVFSNTLLQKNKSP registered an amyloid nucleation score of 0.881 ± 0.19. For VGSLDVIVINQKFSVFVMSC, the amyloid nucleation score entry is “inactive”. As for FLMKLWM, the figure is 1.66 ± 0.08; as for NGLVQSMFVIRSLAQRNERR, “inactive”. Then TYEEGRRQCSRAPMDSYVQS, with “inactive”; and TTMVIRNAMCNILNVVRKRR, with 0.203 ± 0.33; and VGVNWTFPMPLSTL, with “inactive”. As for LRTSVFRVLVNSILVKNLIS, the entry is “inactive”; as for PWFNFECL, “inactive”; as for VWVFKTNFVFRVQLGHSLGC, 1.46 ± 0.094.

Turning to FTCFNGQLVMA, the amyloid nucleation score result is “inactive”. As to GTGWVTSVFLCTVNWVDHRR, the amyloid nucleation score is 2.4 ± 0.084.

Take KFCISSKDKIF: the amyloid nucleation score result was “inactive”. In the case of GMAETRWGLRKIWKVAGARI, the amyloid nucleation score is -0.85 ± 1.9. Regarding YNNVCSEAEWS, the amyloid nucleation score entry was “inactive”. As for NSTFRFTVTRFCIAPSEYIG, the figure is 0.509 ± 0.25; as for TYNRHSFLA, “inactive”. Then ITCGIKIFF, with 2.76 ± 0.068; and FCVPKCYSHWYLVFS, with 1.03 ± 0.12. As for TTGPYLSATEHTVGHLR, the entry is “inactive”. YRFLMLITYYFCIV registered an amyloid nucleation score of 2.11 ± 0.071.

For the substance FLLCHYCFFVDTPGRIFYYS, the amyloid nucleation score came to 0.724 ± 0.18.

For the substance TLFADNAVQIVLERSLRGCG, the amyloid nucleation score result is “inactive”. Then SRFEGLASDTDMYSRDSTWR, with “inactive”; and FGEYVIRMSNCTLPKIMVIP, with “inactive”.
